PMC4313936, “N-Terminal and C-Terminal Domains of Calmodulin Mediate FADD and TRADD Interaction” (PLoS ONE, 2015)

Molecular target: T1, His-CaM (native, Xenopus laevis) (Xenopus laevis, UniProt P0DP33 1-149)
T1 construct: calmodulin, Xenopus laevis, plasmid pET-15b-CaM [41]; also called native untreated CaM; recombinant His-CaM; source: E. coli BL21 (DE3), purified as previously described [8]
Test: pull-down; GST proteins (5 μg) bound to glutathione-sepharose beads incubated with soluble recombinant CaM proteins (His-CaM forms, no-tagged wild-type CaM, Met-to-Leu mutants); 10 mM potassium phosphate pH 7.0, 100 mM KCl, 1% Brij; 2 mM Ca2+ or EGTA in Fig. 2E; western blot with CaM antibody
Conditions: both partners purified

binding result: binds
B1: GST-TRADD R235A (natural protein)
chain: MAAGQNGHEEWVGSAYLFVESSLDKVVLSDAYAHPQQKVAVYRALQAALAESGGSPDVLQMLKIHRSDPQLIVQLRFCGRQPCGRFLRAYREGALRAALQRSLAAALAQHSVPLQLELRAGAERLDALLADEERCLSCILAQQPDRLRDEELAELEDALRNLKCGSGARGGDGEVASAPLQPPVPSLSEVKPPPPPPPAQTFLFQGQPVVNRPLSLKDQQTFARSVGLKWRKVGASLQRGCRALRDPALDSLAYEYEREGLYEQAFQLLRRFVQAEGRRATLQRLVEALEENELTSLAEDLLGLTDPNGGLA
notes: TRADD, human, point mutant of GST-TRADD; also called R235A TRADD mutant; source: E. coli BL21 (DE3)
